Source: patent publication US20170369574A1
“And” between values parts separate entries of the source, which are not always exact repeats. Equal entries are not always repeated.

Molecular target: CD64 (FcγRI) (human) (UniProt P12314)
Assay: cell-based or functional assay

Sequence of H22(scFv)-Ang (chain): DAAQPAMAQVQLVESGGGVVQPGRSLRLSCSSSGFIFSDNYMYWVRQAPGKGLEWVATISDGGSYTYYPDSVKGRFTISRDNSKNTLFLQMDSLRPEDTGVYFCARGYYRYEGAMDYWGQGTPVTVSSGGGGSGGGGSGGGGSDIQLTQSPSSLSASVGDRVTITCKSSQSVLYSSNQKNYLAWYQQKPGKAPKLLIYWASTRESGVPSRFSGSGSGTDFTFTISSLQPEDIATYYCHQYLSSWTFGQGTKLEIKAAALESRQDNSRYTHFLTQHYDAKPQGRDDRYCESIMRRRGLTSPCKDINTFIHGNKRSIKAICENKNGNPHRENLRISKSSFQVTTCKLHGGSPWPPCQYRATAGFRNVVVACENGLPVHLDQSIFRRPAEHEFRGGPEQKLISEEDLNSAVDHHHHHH
Sequence of UniProt P12314 (P12314 16-374): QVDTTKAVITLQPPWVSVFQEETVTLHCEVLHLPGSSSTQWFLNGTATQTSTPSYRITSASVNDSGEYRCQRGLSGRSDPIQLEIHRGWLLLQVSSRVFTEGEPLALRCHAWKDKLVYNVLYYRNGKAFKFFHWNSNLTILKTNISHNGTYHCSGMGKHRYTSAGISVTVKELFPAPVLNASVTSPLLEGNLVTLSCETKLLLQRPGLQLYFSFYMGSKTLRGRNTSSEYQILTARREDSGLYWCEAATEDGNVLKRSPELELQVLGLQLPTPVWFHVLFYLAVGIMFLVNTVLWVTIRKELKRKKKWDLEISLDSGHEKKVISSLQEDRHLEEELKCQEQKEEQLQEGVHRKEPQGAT

IC50/EC50, XTT growth inhibition, HL-60 cells | Molecule | IC50/EC50, XTT growth inhibition, U937 cells [nM] | IC50/EC50, XTT growth inhibition, hM1φ
0.04 nM | H22(scFv)-MAP |  | 
 | GB-H22(scFv) (scFv) HIDDDDKIIGGHEAKPHSRPYMAFLMIWDQKSLKRCGGFLIRDDFVLTAAHCWGSSINVTLGAHNIKEQEPTQQFIPVKRAIPHPAYNPKNFSNDIMLLQLERKAKRTRAVQPLRLPSNKAQVKPGQTCSVAGWGQTAPLGKHSHTLQEVKMTVQEDRKCESDLRHYYDSTIELCVGDPEIKKTSFKGDSGGPLVCNKVAQGIVSYGRNNGMPPRACTKVSSFVHWIKKTMKRYGSKLAEHEGDAAQPAMAQVQLVESGGGVVQPGRSLRLSCSSSGFIFSDNYMYWVRQAPGKGLEWVATISDGGSYTYYPDSVKGRFTISRDNSKNTLFLQMDSLRPEDTGVYFCARGYYRYEGAMDYWGQGTPVTVSSGGGGSGGGGSGGGGSDIQLTQSPSSLSASVGDRVTITCKSSQSVLYSSNQKNYLAWYQQKPGKAPKLLIYWASTRESGVPSRFSGSGSGTDFTFTISSLQPEDIATYYCHQYLSSWTFGQGTKLEIKAAAGPHHHHHH |  | 0.414 nM and 0.14 nM
2.4 nM and 5.7 nM | GBR201K-H22(scFv) (scFv) HIDDDDKIIGGHEAKPHSRPYMAFLMIWDQKSLKRCGGFLIRDDFVLTAAHCWGSSINVTLGAHNIKEQEPTQQFIPVKRAIPHPAYNPKNFSNDIMLLQLERKAKRTRAVQPLRLPSNKAQVKPGQTCSVAGWGQTAPLGKHSHTLQEVKMTVQEDRKCESDLRHYYDSTIELCVGDPEIKKTSFKGDSGGPLVCNKVAQGIVSYGKNNGMPPRACTKVSSFVHWIKKTMKRYAEHEGDAAQPAMAQVQLVESGGGVVQPGRSLRLSCSSSGFIFSDNYMYWVRQAPGKGLEWVATISDGGSYTYYPDSVKGRFTISRDNSKNTLFLQMDSLRPEDTGVYFCARGYYRYEGAMDYWGQGTPVTVSSGGGGSGGGGSGGGGSDIQLTQSPSSLSASVGDRVTITCKSSQSVLYSSNQKNYLAWYQQKPGKAPKLLIYWASTRESGVPSRFSGSGSGTDFTFTISSLQPEDIATYYCHQYLSSWTFGQGTKLEIKAAAGPHHHHHH |  | 

Molecule | IC50/EC50, XTT growth inhibition, HL-60 cells | IC50/EC50, XTT growth inhibition, U937 cells [nM] | IC50/EC50, XTT growth inhibition, hM1φ
H22(scFv)-Ang | 10 nM | 0.2 | 0.29 nM and 0.108 nM
